Data on 32 sequences can be found in the supplement of paper PMC9170038.

The data set has as its system MS2 coat protein. Put plainly: apparent KD of MS2 coat protein; designed switch direction (-1 OFF switch, 1 ON switch): -1; higher = weaker reporter binding. The method, boiled down:
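Designed RNA switches with common flanks were transcribed on Illumina chips by stalled E. coli RNA polymerase and titrated with SNAP-549-labelled MS2 coat protein, from 0.7 or 1.5 nM doubling to 3 µM, in Tris-HCl pH 7.5 buffer with KCl, MgCl2, BSA, DTT, tRNA and Tween-20. Steps lasted 0.8–1.5 h (lowest) to 10–20 min (highest). Titrations ran without input, with 200 uM small-molecule ligand, or with an oligonucleotide input. Normalised cluster fluorescence was curve-fitted, and apparent KD is the per-design median over clusters.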

Setting [1] is: Eterna round: R95, input ligand: microRNA oligo, concentration not stated.
[2] abbreviates: input ligand: microRNA oligo, concentration not stated.
Where [3] appears, read: Eterna round: R95, input ligand: FMN 200 uM.
The mark [4] stands for this setting: Eterna round: R95, input ligand: none.

With “CUUUUGUGAGGAUAUCAGUAGUAAAAUAAUAAAAUAACUACUGAGAAGGCACAUGAGGAUCACCCAUGUUCCUC [Mat - Exclusion 4 - Mod of Salish - D73] (puzzle: Exclusion 4)”, the “apparent KD of MS2 coat protein” value under setting [1] was determined as 33.9 nM.
As for “CUUUUGUGAGGAUAUCAGUAGUAAUACAAUAGUAUUAUUACUGAGAAGGCACAUGAGGAUCACCCAUGUUCCUC [Ex4 344 Omei mod 7] (puzzle: Exclusion 4)”, the “apparent KD of MS2 coat protein” value under setting [1] turned out to be 38.6 nM.
Same read-out and setting: for “CUUUUGUGAGGAUAUCAGUGGUAAAACAAUAGUAUUACUACUGAGAAGGCACAUGAGGAUCACCCAUGUUCCUC [Mat - Exclusion 4 - Mod of Omei - D85] (puzzle: Exclusion 4)” the value was 42.7 nM.
In the case of “CUUUUGUGAGGAUAUGGUAACGUUUACAUGAGGAUCACCCAUGUUUCAUGGGACUUGAGACUAGAAGGCACUAACG [JR_Ex5_Sub027] (Eterna round: R97, puzzle: Exclusion 5)”, the “apparent KD of MS2 coat protein” value (input ligand: FMN 200 uM) was 516 nM and the “apparent KD of MS2 coat protein” value (input ligand: none) was determined as 823 nM.
In the case of “CUUUUGUGAGGAUAUUCGUAGUAGGGUCAUGGUACUAUUACGGAGAAGGCACAUGAGGAUCACCCAUGUACCUU [EX4 #44] (Eterna round: R97, puzzle: Exclusion 4)”, the “apparent KD of MS2 coat protein” value (input ligand: FMN 200 uM) was found to be 25 nM and the “apparent KD of MS2 coat protein” value (input ligand: none) worked out at 15.8 nM.
Consider “GAAAAACAUGAGGAUCACCCAUGUAAGGAUAUGCUGAAAAAACACUGGAAACAGUGCAGCAGAAGGUACAAAAG [Mat - Exclusion 1 - Eli mod - D100] (Eterna round: R96, puzzle: Exclusion 1)”, for which the “apparent KD of MS2 coat protein” value under setting [2] amounted to 47.6 nM.
Consider “GAAAACGCAGAGGAUAUAUCAGAUCAAAGCUGCAUAGAAGGCUGCACAUGAGGAUCACCCAUGUGGUCUUUAAU [Mat - Exclusion 6 - JL Mod - D1] (Eterna round: R97, puzzle: Exclusion 6)”, for which the “apparent KD of MS2 coat protein” value came to 237 nM (input ligand: FMN 200 uM) and 24 nM (input ligand: none).
In the same order, the values of “GAAAAGGCAGAGGAUAUUUCAGGUCAAAGCUGCAAAGAAGGCUGCACAUGAGGAUCACCCAUGUGGUCUUAAAA [Mod of Quesina 6 - Jieux - Exclusion 6] (Eterna round: R97, puzzle: Exclusion 6)” are 150 nM and 22.6 nM.
In the same order, the values of “GAAAAGGUAGAGGAUAUUUCAGAUCAAAGCUGCAAAGAAGGCUGCACAUGAGGAUCACCCAUGUGGUCUUCAAA [Mod of Quesina 9 - Jieux - Exclusion 6] (Eterna round: R97, puzzle: Exclusion 6)” are 121 nM and 19.7 nM.
With “GAAAAGGUAGGAUAUACGAAAAAAAAGGGUAGAAAAAAAACACAUGAGGAUCACCCAUGUAGAAGGACCAAAAC [salish99_ex2_r3_052] (puzzle: Exclusion 2)”, the “apparent KD of MS2 coat protein” value was determined as 94.7 nM under setting [3], 35.3 nM under setting [1] and 27.8 nM under setting [4].
Turning to “GAAAAGGUAGGAUAUACGAAAAAAAAGGGUAGAAAAAAAAGACAUGAGGAUCACCCAUGUAGAAGGACCAAAAG [salish99_ex2_r3_061] (puzzle: Exclusion 2)”, the “apparent KD of MS2 coat protein” value was 76.6 nM under setting [3], 36.5 nM under setting [1] and 27.1 nM under setting [4].
In the case of “GAAAAGGUAGGAUAUACGAAAAAAAAGGUUAGAAAAAAAACACAUGAGGAUCACCCAUGUAGAAGGACCAAAAG [salish99_ex2_r3_067] (puzzle: Exclusion 2)”, the “apparent KD of MS2 coat protein” value by setting is: under setting [3], 17.4 nM; under setting [1], 21.8 nM; under setting [4], 17.8 nM.
In the same order, the values of “GAAAAGGUAGGAUAUACGAGAAGAAAGGGUAGAGAAGAAACACAUGAGGAUCACCCAUGUAGAAGGACCAAAAG [salish99_ex2_r3_099] (puzzle: Exclusion 2)” are 66.7 nM, 29.9 nM and 29.9 nM.
For “GAAAAGGUAGGAUAUACUAAAAAAAAGGGUAGAAAAAAAACACAUGAGGAUCACCCAUGUAGAAGGACCAAAAG [salish99_ex2_r3_058] (puzzle: Exclusion 2)”, the “apparent KD of MS2 coat protein” value under setting [3] came out at 48.2 nM, the “apparent KD of MS2 coat protein” value under setting [1] amounted to 31.8 nM and the “apparent KD of MS2 coat protein” value under setting [4] is 20.8 nM.
As to “GAAACCAGAGGAUAUGCGAAUAAAUAAAACUUUUUUUUUUAACAUGAGGAUCACCCAUGUAGAAGGCUGCAAAG [Ex2 #35] (Eterna round: R97, puzzle: Exclusion 2)”, the “apparent KD of MS2 coat protein” value by setting is: (input ligand: FMN 200 uM) 32 nM; (input ligand: none) 31 nM.
For “GAAAGACAUGAGGAUCACCCAUGUCAGGAUAUGAUGCCAGCGUAGCUAGUAGGUUUUGUCAGAAGGGACGGGUU [Eternabot (L1) Solution 70] (Eterna round: R97, puzzle: Exclusion 1)”, the “apparent KD of MS2 coat protein” value by setting is: (input ligand: FMN 200 uM) 32.2 nM; (input ligand: none) 27.4 nM.
As for “GAAAUGGUAGGAUAUACGAAAAAAAAGGGUAGAAAAAAAACACAUGAGGAUCACCCAUGUAGAAGGACCAAAAG [salish99_ex2_r3_088] (puzzle: Exclusion 2)”, the “apparent KD of MS2 coat protein” value is 71.4 nM under setting [3], 31.9 nM under setting [1] and 28.4 nM under setting [4].
Turning to “GAACUAAGGCAAAGCUUUAGUCGUACAUGAGGAUCACCCAUGUAGGAUAUGGUAGGCAAAGCAUACCAGAAGGACAGAGUGAUC [Mat - Exclusion NG 3 - Mod of JL - D62] (Eterna round: R96, puzzle: Exclusion NG 3)”, the “apparent KD of MS2 coat protein” value by setting is: (input ligand: FMN 200 uM) 387 nM; under setting [2], 363 nM; (input ligand: none) 220 nM.
Consider “GAAGAAAAGGCAGGAUAUCAGAAACACAUGAUAAGGAGAUGCAACAUGAGGAUCACCCAUGUAAAUGAGAAGGGCCGCCCUUCC [Arbiis] (Eterna round: R96, puzzle: Exclusion NG 2)”, for which the “apparent KD of MS2 coat protein” value under setting [2] turned out to be 28 nM.
For the sequence “GAAGAUCGAGUUAGGAUAUGAUUACUAUCCGAAAAUCAGAAGGAACUUGAGGAUCACCCAAGUAAAGAAGAAAU [JR_BMEx4_Sub051] (Eterna round: R97, puzzle: Brourd's mod of Exclusion 4)”, the “apparent KD of MS2 coat protein” value (input ligand: FMN 200 uM) is 22.9 nM and the “apparent KD of MS2 coat protein” value (input ligand: none) is 16.5 nM.
For the sequence “GAAGAUCGAGUUAGGAUAUGAUUACUAUCCGAAAAUCAGAAGGAACUUGAGGAUCACCCAAGUUUAGAAGAAAU [JR_BMEx4_Sub052] (Eterna round: R97, puzzle: Brourd's mod of Exclusion 4)”, the “apparent KD of MS2 coat protein” value reads like this: (input ligand: FMN 200 uM) 18.2 nM; (input ligand: none) 14.7 nM.
On to “GAAUAACAAGUGAGGAUAUGGAGUUGGGAGCCAGUUCAGAAGGCACAUGAGGAUCACCCAUGUGAACCGCAGCU [Eternabot (L2) Solution 45] (Eterna round: R97, puzzle: Brourd's mod of Exclusion 4)”, for which the “apparent KD of MS2 coat protein” value is 16.9 nM (input ligand: FMN 200 uM) and 14.5 nM (input ligand: none).
As to “GAAUAGAGAGGAUAUGCGUAGUAGGUAGUAAGAUAUAUCUGACAUGAGGAUCACCCAUGUAGAAGGCUCAGAUC [EX2 #3] (Eterna round: R97, puzzle: Exclusion 2)”, the “apparent KD of MS2 coat protein” value reads like this: (input ligand: FMN 200 uM) 40.1 nM; (input ligand: none) 35.2 nM.
“GAAUAGCGAGGAUAUGCAAUGAAGAUCGUACGAUAUGGCUGACAUGAGGAUCACCCAUGUAGAAGGCGCUGAUC [EX2 #14] (Eterna round: R97, puzzle: Exclusion 2)”: the “apparent KD of MS2 coat protein” value was 55.1 nM (input ligand: FMN 200 uM) and 53.7 nM (input ligand: none).
In the same order, the values of “GAAUCGACAGGAUAUACAUGAGGAUCACCCAUGUAGUCAGAGAUGAUACCUCAACCUAGUAGAAGGGUCAGCGG [Eternabot (L2) Solution 17] (Eterna round: R97, puzzle: Exclusion 3)” are 45.5 nM and 25 nM.
In the same order, the values of “GAAUGAGAGCAGGAUAUCUUAUAAAUGUAUGAAAGAGAAGGGCUCACAUGAGGAUCACCCAUGUGGUCCUAGAA [jl-ex6-4.78 jandersonlee mod] (Eterna round: R97, puzzle: Exclusion 6)” are 506 nM and 36.9 nM.
As for “GACAGGGCAGGAUAUCGAGAUCCGCACAUGAGGAUCACCCAUGUUCAGUCGAAAGACUGACGAGAAGGGCCGUGUC [Omei Ex5 E4] (Eterna round: R97, puzzle: Exclusion 5)”, the “apparent KD of MS2 coat protein” value (input ligand: FMN 200 uM) came to 1190 nM and the “apparent KD of MS2 coat protein” value (input ligand: none) turned out to be 1390 nM.
Consider “GACCCGUCAGGAUAUACAUGAGGAUCACCCAUGUAAUCAGCGAUAGGACAAGGCUCACGUAGAAGGGACAGGGU [Eternabot (L1) Solution 33] (Eterna round: R97, puzzle: Exclusion 3)”, for which the “apparent KD of MS2 coat protein” value (input ligand: FMN 200 uM) came to 44.6 nM and the “apparent KD of MS2 coat protein” value (input ligand: none) stood at 22.8 nM.
For the sequence “GACCCUAGGGUCAGAUGCACAAGCUUUUUGCUCGUUUUAACAUGAGGAUCACCCAUGUCUAGUGGAUCUGAUCGGGC [Erorente] (puzzle: Sensor v3, turn-off variant 2)”, the “apparent KD of MS2 coat protein” value is, setting by setting: under setting [3], 20.6 nM; under setting [1], 88.8 nM; under setting [4], 18.2 nM.
“GACCGGUAAGGAUAUGUAUCUUUCAGGACACUACCGAAGAUGCAGAAGGUACAUGAGGAUCACCCAUGUGGGCU [Eternabot (L1) Solution 36] (Eterna round: R97, puzzle: Exclusion 4)”: the “apparent KD of MS2 coat protein” value came to 227 nM (input ligand: FMN 200 uM) and 75.8 nM (input ligand: none).
Turning to “GACCUAUAGGUAGGAUAUCAUUGCGAUUAGCUAUGAGAAGGACCACAUGAGGAUCACCCAUGUCCUCUAAUUAGCCAUUUGGUC [Fiskers ExNg1 - 8] (Eterna round: R96, puzzle: Exclusion NG 1)”, the “apparent KD of MS2 coat protein” value under setting [2] was 338 nM.
As for “GACCUUCCUGUAAGGAUAUCCAUGUAUCAAAGCAUGGAGAAGGUACAUGAGGAUCACCCAUGUCACCCGCGUUA (Eterna round: R97, puzzle: Brourd's mod of Exclusion 4)”, the “apparent KD of MS2 coat protein” value is, setting by setting: (input ligand: FMN 200 uM) 17.7 nM; (input ligand: none) 11.7 nM.
